This data set has as its system MS2 coat protein. Kind of data set: apparent KD of MS2 coat protein; designed switch direction (-1 OFF switch, 1 ON switch): -1; higher = weaker reporter binding. The method, boiled down: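 RNA switches sharing common flanks were transcribed by stalled E. coli RNA polymerase on Illumina chips. A doubling series of SNAP-549-labelled MS2 coat protein, from 0.7 or 1.5 nM to 3 µM, was applied in Tris-HCl pH 7.5 buffer with KCl, MgCl2, BSA, DTT, tRNA and Tween-20. Each step lasted 0.8–1.5 h at the bottom of the series and 10–20 min at the top. Normalised cluster fluorescence was curve-fitted, giving apparent KD as the per-design median over clusters.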

Setting [1] is: Eterna round: R95, input ligand: FMN 200 uM.
[2] abbreviates: Eterna round: R95, input ligand: microRNA oligo, concentration not stated.
The mark [3] stands for this setting: Eterna round: R95, input ligand: none.
Setting [4] is: input ligand: microRNA oligo, concentration not stated.

Data on 30 sequences can be found in the supplement of paper PMC9170038.

For the sequence “AGUUGGGCAGGAUAUACAUGAGGAUCACCCAUGUGAGAGAUACUAGUGAGGUCGAUUAGUAGAAGGGCCUGACA [Mat X3R4 m2] (Eterna round: R97, puzzle: Exclusion 3)”, the “apparent KD of MS2 coat protein” value runs as follows: (input ligand: FMN 200 uM) 251 nM; (input ligand: none) 40.9 nM.
Turning to “AGUUGUUGUUUCCGUUCUUACAUGAGGAUCACCCAUGUUUCUUGUCGUGCUCGCGUUGCUCGUCAGACUACCUGUUG [salish99_TOv1_r3_064] (puzzle: Sensor v3, turn-off variant 1)”, the “apparent KD of MS2 coat protein” value worked out at 87.1 nM under setting [1], 106 nM under setting [2] and 138 nM under setting [3].
For the sequence “AUAAAGCAGUCAGGAUAUAUGAGAGGUCGUUUCAUAGAAGGGACAGCUCGUGCGUGGCUGACAUGAGGAUCACCCAUGUACGUU [Enrizala] (Eterna round: R96, puzzle: Exclusion NG 1)”, the “apparent KD of MS2 coat protein” value amounted to 229 nM (input ligand: FMN 200 uM), 39.1 nM under setting [4] and 37.6 nM (input ligand: none).
In the case of “AUAAAUAAGGAGGAUAUCGUAUCGGAAACGAUACGAGAAGGUCUAACAUGAGGAUCACCCAUGUUCCUCAAUAA [Mat - Exclusion 6 - Eli Mod - D47] (puzzle: Exclusion 6)”, the “apparent KD of MS2 coat protein” value under setting [2] was found to be 34.5 nM.
For “AUAAAUCAUGUAGGAUAUGCGUGGCAAAGCUAUGCAGAAGGACAUGAGGAUCACCCAUGUGCUUCCGUCUGCGUACAGACGGUA [Mat - Exclusion NG 1 - Mod of JL - D33] (Eterna round: R96, puzzle: Exclusion NG 1)”, the “apparent KD of MS2 coat protein” value was 114 nM (input ligand: FMN 200 uM), 80.7 nM under setting [4] and 107 nM (input ligand: none).
On to “AUAACAAGCUUUUUGUUCGUAGAACAUGAUGCUCGAGUCACAUGAGGAUCACCCAUGUCAACCAGAUAGAUAGUUGA [JR_SV3TOV2_Sub061] (puzzle: Sensor v3, turn-off variant 2)”, for which the “apparent KD of MS2 coat protein” value is, setting by setting: under setting [1], 41.2 nM; under setting [2], 162 nM; under setting [3], 54.4 nM.
On the same counts, the results for “AUAAGCUUUGAGAUCCUUAACAUGAGGAUCACCCAUGUUCGUCUUAUGAUGGUCUGAUCCCUGAGGAUCGGACCGUC [JL-sv1-2.01 Brourd Mod] (puzzle: Sensor v3, turn-off variant 1)” are 456 nM, 13.5 nM and 416 nM.
As for “AUAAGUAUAUAGGAUAUCUAGCUGGUAACAGCUAGAGAAGGAUGUACAUGAGGAUCACCCAUGUAAAUCUCAAU [Ex6/12-A2] (Eterna round: R97, puzzle: Exclusion 6)”, the “apparent KD of MS2 coat protein” value reads like this: (input ligand: FMN 200 uM) 15.7 nM; (input ligand: none) 16.1 nM.
On the same counts, the results for “AUAAUACAUGAGGAUCACCCAUGUGAGGAUAUACGACUCCAACCAAACUGCUUGGACCGUAGAAGGCACAAGGG [Exclusion 1 (MOD1 Esqu)] (Eterna round: R97, puzzle: Exclusion 1)” are 22.7 nM and 589 nM.
On the same counts, the results for “AUAAUGUGAGGAUAUAUGCAUCACGGUGAUACACCGUGAUGAUAGAAGGUACAUGAGGAUCACCCAUGUAGGGC [Mod of Anonveat 16 - Jieux - Exclusion 4] (Eterna round: R97, puzzle: Exclusion 4)” are 51.2 nM and 37.8 nM.
On the same counts, the results for “AUAAUGUGAGGAUAUCAGUCGACUAGCUGCGGCUAGUCGACUGAGAAGGUACAUGAGGAUCACCCAUGUAGAUC [E4/20-A3] (Eterna round: R97, puzzle: Exclusion 4)” are 77.9 nM and 29.4 nM.
As to “AUAAUGUGAGGAUAUCAGUCGACUAGCUUCGGCUAGUCGACUGAGAAGGUACAUGAGGAUCACCCAUGUAGAUC [E4/20-A1] (Eterna round: R97, puzzle: Exclusion 4)”, the “apparent KD of MS2 coat protein” value reads like this: (input ligand: FMN 200 uM) 59.9 nM; (input ligand: none) 40.9 nM.
In the case of “AUAAUUUAAGGAUAUACGUGGCGAGCCAGAUAGCUGGGUCUACAUGAGGAUCACCCAUGUAGAAGGUAAGGAUU [Eternabot (L1) Solution 23] (Eterna round: R97, puzzle: Exclusion 2)”, the “apparent KD of MS2 coat protein” value reads like this: (input ligand: FMN 200 uM) 17.8 nM; (input ligand: none) 18.6 nM.
“AUACUCGUAGGAUAUGGCAAGCUGAACAUGAGGAUCACCCAUGUGUUCUACAGAUCUGGGUUAGAAGGACGUUAUU [Eternabot (L2) Solution 39] (Eterna round: R97, puzzle: Exclusion 5)”: the “apparent KD of MS2 coat protein” value is 49.3 nM (input ligand: FMN 200 uM) and 59.7 nM (input ligand: none).
“AUACUCUUUGUGAGGAUAUCGUUUUCUUUACGGUUCGAGAAGGCACAUGAGGAUCACCCAUGUUUGACGUGAAU [JR_BMOE4_Sub094] (puzzle: Brourd's mod of Exclusion 4)”: under setting [2], the “apparent KD of MS2 coat protein” value worked out at 21.2 nM.
“AUAUAAAUAUAGGAUAUCGAAUUUAUUAAUUAUCGAGAAGGAUAAACAUGAGGAUCACCCAUGUGGUAUCAUGG [Mat - Exclusion 6 - JL Mod - D40] (puzzle: Exclusion 6)”: the “apparent KD of MS2 coat protein” value under setting [2] stood at 270 nM.
Take “AUCAGCUCGUCAGGAUAUACAUGAGGAUCACCCAUGUGAUCAAUAGCAGCUUCGGCUGCAUACAUGUAGAAGGGACGAGCUGAU [ENG2/6-B3] (Eterna round: R96, puzzle: Exclusion NG 2)”: the “apparent KD of MS2 coat protein” value runs as follows: (input ligand: FMN 200 uM) 50 nM; under setting [4], 234 nM; (input ligand: none) 821 nM.
For “AUCAGCUCGUGAGGAUAUACAUCACUGCUUCGGCAGUGUAUUAAGAUCACAUGAGGAUCACCCAUGUAGAAGGCACGAGCUGAU [ENG2/2-A3] (Eterna round: R96, puzzle: Exclusion NG 2)”, in that order: 437 nM, 31.7 nM and 38.3 nM.
For “AUCAGCUCGUGAGGAUAUACAUGAGGAUCACCCAUGUGAUCAAUAGCAGCUUCGGCUGCAUUAAUGUAGAAGGUACGAGCUGAU [ENG2/5-C3] (Eterna round: R96, puzzle: Exclusion NG 2)”, in that order: 114 nM, 216 nM and 961 nM.
For the sequence “AUCAGCUCGUGAGGAUAUACAUGAUAGAUCGAUUAAUUAAUUAAUUUAACAUGAGGAUCACCCAUGUAGAAGGUACGAGCUGAU [ENG2/1-C3] (Eterna round: R96, puzzle: Exclusion NG 2)”, under setting [4], the “apparent KD of MS2 coat protein” value is 39.6 nM.
Consider “AUCAGCUCGUGAGGAUAUAUAUAUACAUGAGGAUCACCCAUGUUAGAUCAGCUUCGGCAGUAUAUAUAGAAGGCACGAGCUGAU [ENG2/15-A2] (Eterna round: R96, puzzle: Exclusion NG 2)”, for which the “apparent KD of MS2 coat protein” value by setting is: (input ligand: FMN 200 uM) 233 nM; under setting [4], 90.6 nM; (input ligand: none) 79.6 nM.
For “AUCAGCUCGUGAGGAUAUGCACAUGAGGAUCACCCAUGUAAGAUCAAGCUGCUUCGGCAGCAAGUGCAGAAGGUACGAGCUGAU [ENG2/9-C2] (Eterna round: R96, puzzle: Exclusion NG 2)”, in that order: 206 nM, 128 nM and 234 nM.
Take “AUCCUCACUUUUUAAGCGAACAUGAGGAUCACCCAUGUACAAGCUUUUUGCUCGGCUUAUAAAGGGUUGGAAACAAC [Alacar Attempt 3] (Eterna round: R97, puzzle: Sensor, turn-off variant 1)”: the “apparent KD of MS2 coat protein” value by setting is: (input ligand: FMN 200 uM) 16.8 nM; (input ligand: none) 16 nM.
Consider “AUCCUCUAGAAGGAUAUGCAGGUUGAAUAAACCGCAGAAGGUUUUACAUGAGGAUCACCCAUGUGUAUAACACA [Eternabot (L2) Solution 100] (Eterna round: R97, puzzle: Exclusion 6)”, for which the “apparent KD of MS2 coat protein” value stood at 230 nM (input ligand: FMN 200 uM) and 165 nM (input ligand: none).
Regarding “AUCGUGCAGCUUUGCUGUACGAGUACAUGAGGAUCACCCAUGUAGGAUAUGGUACGCUUUGCGUGCUAGAAGGAUAUGUGUUUG [EX ENG3 1.44] (Eterna round: R96, puzzle: Exclusion NG 3)”, the “apparent KD of MS2 coat protein” value amounted to 58.6 nM (input ligand: FMN 200 uM), 29.8 nM under setting [4] and 43.4 nM (input ligand: none).
In the case of “AUCGUGUGAGGAUAUCGAUGUUGGACGUCUAGGUCUGAGCGCGAGAAGGCACAUGAGGAUCACCCAUGUAAGGG [jl-ex4-4.24 ViennaUCT mod] (Eterna round: R97, puzzle: Exclusion 4)”, the “apparent KD of MS2 coat protein” value runs as follows: (input ligand: FMN 200 uM) 220 nM; (input ligand: none) 896 nM.
For the sequence “AUGAGACAUGAGGAUCACCCAUGUGAGGAUAUGUAUGGAUGUUGGAAAGAAUGAGAGAACAGAAGGCACGUAGA [JR_Exclu1_Sub063] (puzzle: Exclusion 1)”, the “apparent KD of MS2 coat protein” value under setting [1] is 93.1 nM, the “apparent KD of MS2 coat protein” value under setting [2] amounted to 104 nM and the “apparent KD of MS2 coat protein” value under setting [3] turned out to be 149 nM.
In the case of “AUGAGCAGACGGAGAUCCAACAUGAGGAUCACCCAUGUCUCAUAAGCUUUUUGUUCAUCUUAUUGUACCUUGGUGCA [Mat - Sensor v3 - turn-off var 1 - JL Mod - D25] (Eterna round: R96, puzzle: Sensor v3, turn-off variant 1)”, the “apparent KD of MS2 coat protein” value (input ligand: FMN 200 uM) is 242 nM, the “apparent KD of MS2 coat protein” value under setting [4] turned out to be 25.4 nM and the “apparent KD of MS2 coat protein” value (input ligand: none) was 198 nM.
For “AUGAGCAGACGGAGAUCCAACAUGAGGAUCACCCAUGUCUCAUAAGCUUUUUGUUCAUCUUAUUGUACCUUGGUGCA [Mat - Sensor v3 - turn-off var 1 - JL Mod - D25] (puzzle: Sensor v3, turn-off variant 1)”, the “apparent KD of MS2 coat protein” value runs as follows: under setting [1], 57.2 nM; under setting [2], 30.5 nM; under setting [3], 55.5 nM.
As for “AUGAGGUUAGGAUAUACAUGAGGAUCACCCAUGUUGAAGGGUUAGGUAGGCGGAGCUGGUAGAAGGAACGGAGC [JR_Exclu3_Sub057] (Eterna round: R96, puzzle: Exclusion 3)”, the “apparent KD of MS2 coat protein” value (input ligand: FMN 200 uM) was 44.3 nM, the “apparent KD of MS2 coat protein” value under setting [4] came out at 31.9 nM and the “apparent KD of MS2 coat protein” value (input ligand: none) is 55.3 nM.
